From patent publication US20140271602, “NUCLEOTIDE-SPECIFIC RECOGNITION SEQUENCES FOR DESIGNER TAL EFFECTORS” (THE BROAD INSTITUTE INC., published 2014) come the findings set out here.

Data set [1] concerns the target T1, TALE1-NN (CACNA1C site 1 activator) (Xanthomonas (engineered), UniProt P14727 SEQ:1-983).
T1 chain: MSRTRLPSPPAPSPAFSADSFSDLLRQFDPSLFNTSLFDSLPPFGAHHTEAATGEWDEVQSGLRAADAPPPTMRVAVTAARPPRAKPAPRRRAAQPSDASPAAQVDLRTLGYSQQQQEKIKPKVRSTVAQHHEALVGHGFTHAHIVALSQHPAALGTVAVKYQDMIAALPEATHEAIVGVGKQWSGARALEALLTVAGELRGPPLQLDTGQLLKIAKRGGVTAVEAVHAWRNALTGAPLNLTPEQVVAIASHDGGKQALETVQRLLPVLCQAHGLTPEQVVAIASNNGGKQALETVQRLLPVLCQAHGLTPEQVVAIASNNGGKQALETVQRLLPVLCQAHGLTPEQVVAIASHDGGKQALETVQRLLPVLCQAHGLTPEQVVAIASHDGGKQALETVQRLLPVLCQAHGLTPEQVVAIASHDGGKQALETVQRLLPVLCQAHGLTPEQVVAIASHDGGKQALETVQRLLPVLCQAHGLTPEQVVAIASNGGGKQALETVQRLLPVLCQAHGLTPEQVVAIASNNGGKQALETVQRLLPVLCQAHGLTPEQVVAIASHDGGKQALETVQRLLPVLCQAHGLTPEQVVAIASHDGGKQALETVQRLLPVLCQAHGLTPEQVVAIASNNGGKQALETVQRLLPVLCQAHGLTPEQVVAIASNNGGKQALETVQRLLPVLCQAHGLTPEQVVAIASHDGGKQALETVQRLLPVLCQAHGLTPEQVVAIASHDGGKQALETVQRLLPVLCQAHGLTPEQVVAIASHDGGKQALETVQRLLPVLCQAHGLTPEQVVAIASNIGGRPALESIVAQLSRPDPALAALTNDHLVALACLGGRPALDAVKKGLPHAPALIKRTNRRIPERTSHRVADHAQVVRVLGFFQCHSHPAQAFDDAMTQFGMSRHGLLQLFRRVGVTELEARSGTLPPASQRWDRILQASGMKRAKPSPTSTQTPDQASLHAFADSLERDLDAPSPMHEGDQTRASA
Put plainly: cell_activity; HEK 293FT, endogenous CACNA1C mRNA. The following applies: tags: VP64, 2A-GFP. The procedure: Changes in mRNA are measured using qRT-PCR as described previously. VP64, VP64 transcription activation domain. All results are collected from three independent experiments in HEK 293FT cells. Error bars indicate s.e.m.; n=3. FIG. 19(b) discloses SEQ ID NOS 63 and 62, respectively, in order of appearance.
Using qRT-PCR, the performance of NN, NK, NH, and HN for targeting endogenous genomic sequences was further compared. The ability of NN-, NK-, NH-, and HN-TALEs to activate CACNA1C transcription by targeting the two endogenous target sites was tested (FIG. 19b). […] Both TALE 1-NH and TALE2-NH were able to achieve similar levels of transcriptional activation as TALE1-NN and TALE2-NN (˜5 and ˜3 folds of activation for targets 1 and 2, respectively) and twice more than TALE-NK and TALE2-NK (FIG. 19b). […] On the other hand, based on all the results from specificity and endogenous activity tests, the RVD NH seems to be a more suitable substitute for NN than NK when higher targeting specificity is desired, as it also provides higher levels of biological activity. Further testing using additional endogenous genomic targets helps validate the broad utility of NH as a highly specific G-targeting RVD.
For the endogenous gene transcriptional level assay to test the biological activities of TALE activators and TALE repressors, HEK 293FT cells were seeded into 24-well plates. […]

The target of data set [2] is T2, TALE1-NK repressor (Xanthomonas (engineered), UniProt P14727 SEQ:1-983).
T2 chain: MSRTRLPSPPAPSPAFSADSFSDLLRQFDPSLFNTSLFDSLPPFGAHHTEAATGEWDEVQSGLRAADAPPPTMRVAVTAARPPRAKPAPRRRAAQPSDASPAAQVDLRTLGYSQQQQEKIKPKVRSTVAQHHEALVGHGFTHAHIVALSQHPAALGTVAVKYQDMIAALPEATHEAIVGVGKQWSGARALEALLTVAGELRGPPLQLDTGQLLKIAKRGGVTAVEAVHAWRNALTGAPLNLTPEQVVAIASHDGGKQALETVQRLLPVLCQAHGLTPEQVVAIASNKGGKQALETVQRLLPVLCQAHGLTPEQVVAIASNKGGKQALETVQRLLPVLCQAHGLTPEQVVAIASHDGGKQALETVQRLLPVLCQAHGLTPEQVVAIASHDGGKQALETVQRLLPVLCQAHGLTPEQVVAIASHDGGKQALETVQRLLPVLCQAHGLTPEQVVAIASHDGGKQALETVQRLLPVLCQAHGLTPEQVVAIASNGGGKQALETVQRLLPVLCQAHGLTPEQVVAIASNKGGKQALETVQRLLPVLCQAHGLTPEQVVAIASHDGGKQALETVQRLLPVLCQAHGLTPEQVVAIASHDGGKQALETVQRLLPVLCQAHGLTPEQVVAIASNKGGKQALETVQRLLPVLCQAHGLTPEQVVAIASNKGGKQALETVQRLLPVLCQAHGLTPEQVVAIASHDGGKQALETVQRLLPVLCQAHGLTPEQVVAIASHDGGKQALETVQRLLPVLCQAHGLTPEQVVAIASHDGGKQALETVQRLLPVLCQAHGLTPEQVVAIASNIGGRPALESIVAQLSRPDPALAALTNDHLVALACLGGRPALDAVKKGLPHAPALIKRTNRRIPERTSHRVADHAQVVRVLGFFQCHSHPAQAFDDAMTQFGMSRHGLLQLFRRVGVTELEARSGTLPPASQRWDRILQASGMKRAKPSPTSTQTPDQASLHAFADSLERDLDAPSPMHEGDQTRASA
Put plainly: cell_activity; endogenous CACNA1C mRNA. The note with it: tags: SID.

B1: CACNA1C site 1 (dsDNA)
DNA 1: TCGGCCCCTGCCGGCCCA
DNA 2: TGGGCCGGCAGGGGCCGA
In the case of B1, the activity in data set [1] is around 5 fold activation; in data set [2] it was around 2 fold repression.
